Assay results reported in PMC7374751, “TIMP-3 facilitates binding of target metalloproteinases to the endocytic receptor LRP-1 and promotes scavenging of MMP-1” (Scientific Reports, 2020).

B1: Receptor-associated protein (RAP), recombinant His-tagged (natural protein, UniProt P30533 35-357, looked up)
chain: YSREKNQPKPSPKRESGEEFRMEKLNQLWEKAQRLHLPPVRLAELHADLKIQERDELAWKKLKLDGLDEDGEKEARLIRNLNVILAKYGLDGKKDARQVTSNSLSGTQEDGLDDPRLEKLWHKAKTSGKFSGEELDKLWREFLHHKEKVHEYNVLLETLSRTEEIHENVISPSDLSDIKGSVLHSRHTELKEKLRSINQGLDRLRRVSHQGYSTEAEFEEPRVIDLWDLAQSANLTDKELEAFREELKHFEAKIEKHNHYQKQLEIAHEKLRHAESVGDGERVSRSREKHALLEGRTKELGYTVKKHLQDLSGRISRARHNEL
B2: FLAG-tagged ADAMTS-5 lacking the C-terminal thrombospondin domain (ADAMTS5-2) (domain or fragment, UniProt Q9UNA0 262-874, looked up)
chain: SISRARQVELLLVADASMARLYGRGLQHYLLTLASIANRLYSHASIENHIRLAVVKVVVLGDKDKSLEVSKNAATTLKNFCKWQHQHNQLGDDHEEHYDAAILFTREDLCGHHSCDTLGMADVGTICSPERSCAVIEDDGLHAAFTVAHEIGHLLGLSHDDSKFCEETFGSTEDKRLMSSILTSIDASKPWSKCTSATITEFLDDGHGNCLLDLPRKQILGPEELPGQTYDATQQCNLTFGPEYSVCPGMDVCARLWCAVVRQGQMVCLTKKLPAVEGTPCGKGRICLQGKCVDKTKKKYYSTSSHGNWGSWGSWGQCSRSCGGGVQFAYRHCNNPAPRNNGRYCTGKRAIYRSCSLMPCPPNGKSFRHEQCEAKNGYQSDAKGVKTFVEWVPKYAGVLPADVCKLTCRAKGTGYYVVFSPKVTDGTECRLYSNSVCVRGKCVRTGCDGIIGSKLQYDKCGVCGGDNSSCTKIVGTFNKKSKGYTDVVRIPEGATHIKVRQFKAKDQTRFTAYLALKKKNGEYLINGKYMISTSETIIDINGTVMNYSGWSHRDDFLHGMGYSATKEILIVQILATDPTKPLDVRYSFFVPKKSTPKVNSVTSHGSNKVGSHT
notes: ADAMTS-5 lacking the C-terminal thrombospondin domain
B3: MMP-1ΔC/TIMP-3 complex (complex)
chain 1: FVLTEGNPRWEQTHLTYRIENYTPDLPRADVDHAIEKAFQLWSNVTPLTFTKVSEGQADIMISFVRGDHRDNSPFDGPGGNLAHAFQPGPGIGGDAHFDEDERWTNNFREYNLHRVAAHELGHSLGLSHSTDIGALMYPSYTFSGDVQLAQDDIDGIQAIYGRSQNPVQP
chain 2: CTCSPSHPQDAFCNSDIVIRAKVVGKKLVKEGPFGTLVYTIKQMKMYRGFTKMPHVQYIHTEASESLCGLKLEVNKYQYLLTGRVYDGKMYTGLCNFVERWDQLTLSQRKGLNYRYHLGCNCKIKSCYYLPCFVTSKNECLWTDMLSNFGYPGYQSKHYACIRQKGGYCSWYRGWAPPDKSIINATDP
notes: catalytic domain of human MMP-1; pro-domain removed with APMA; as m8; as m3
B4: ADAM-10/TIMP-3 complex (complex)
chain 1: TTSAEKNTCQLYIQTDHLFFKYYGTREAVIAQISSHVKAIDTIYQTTDFSGIRNISFMVKRIRINTTADEKDPTNPFRFPNIGVEKFLELNSEQNHDDYCLAYVFTDRDFDDGVLGLAWVGAPSGSSGGICEKSKLYSDGKKKSLNTGIITVQNYGSHVPPKVSHITFAHEVGHNFGSPHDSGTECTPGESKNLGQKENGNYIMYARATSGDKLNNNKFSLCSIRNISQVLEKKRNNCFVESGQPICGNGMVEQGEECDCGYSDQCKDECCFDANQPEGRKCKLKPGKQCSPSQGPCCTAQCAFKSKSEKCRDDSDCAREGICNGFTALCPASDPKPNFTDCNRHTQVCINGQCAGSICEKYGLEECTCASSDGKDDKELCHVCCMKKMDPSTCASTGSVQWSRHFSGRTITLQPGSPCNDFRGYCDVFMRCRLVDADGPLARLKKAIFSPELYENIAE
chain 2: B3 chain 2
modifications: 1:1 non-covalent complex; ADAM10 ectodomain (R&D Systems) taken by convention as mature extracellular region without prodomain (catalytic Zn2+), limits not given; TIMP-3 C-terminal/FLAG tag left …
B5: ADAMTS5-2/TIMP-3 complex (complex)
chain 1: B2 chain
chain 2: B3 chain 2
notes: ADAMTS-5 lacking the C-terminal thrombospondin domain; as m17; as m3; also called [35S]TIMP-3/ADAMTS5-2
B6: ADAMTS4-2/TIMP-3 complex (complex)
chain 1: FASLSRFVETLVVADDKMAAFHGAGLKRYLLTVMAAAAKAFKHPSIRNPVSLVVTRLVILGSGEEGPQVGPSAAQTLRSFCAWQRGLNTPEDSDPDHFDTAILFTRQDLCGVSTCDTLGMADVGTVCDPARSCAIVEDDGLQSAFTAAHELGHVFNMLHDNSKPCISLNGPLSTSRHVMAPVMAHVDPEEPWSPCSARFITDFLDNGYGHCLLDKPEAPLHLPVTFPGKDYDADRQCQLTFGPDSRHCPQLPPPCAALWCSGHLNGHAMCQTKHSPWADGTPCGPAQACMGGRCLHMDQLQDFNIPQAGGWGPWGPWGDCSRTCGGGVQFSSRDCTRPVPRNGGKYCEGRRTRFRSCNTEDCPTGSALTFREEQCAAYNHRTDLFKSFPGPMDWVPRYTGVAPQDQCKLTCQAQALGYYYVLEPRVVDGTPCSPDSSSVCVQGRCIHAGCDRIIGSKKKFDKCMVCGGDGSGC
chain 2: B3 chain 2
notes: ADAMTS-4 lacking the C-terminal spacer domain; as m16; as m3; also called [35S]TIMP-3/ADAMTS4-2
B7: FLAG-tagged ADAMTS-4 lacking the C-terminal spacer domain (ADAMTS4-2) (domain or fragment, UniProt O75173 213-685, looked up)
chain: B6 chain 1
notes: ADAMTS-4 lacking the C-terminal spacer domain
B8: FLAG-tagged N-TIMP-3 (N-terminal domain of TIMP-3) (domain or fragment, UniProt P35625 24-143, looked up)
chain: CTCSPSHPQDAFCNSDIVIRAKVVGKKLVKEGPFGTLVYTIKQMKMYRGFTKMPHVQYIHTEASESLCGLKLEVNKYQYLLTGRVYDGKMYTGLCNFVERWDQLTLSQRKGLNYRYHLGC
B9: TIMP-1 (natural protein)
chain: not shown
notes: also called T1

Target: T1, low-density lipoprotein receptor-related protein 1 (LRP-1) (UniProt Q07954 20-4544)
T1 construct: low-density lipoprotein receptor-related protein 1 (LRP-1), bought from Biomac; source: bought: Biomac (Leipzig, Germany)
T1 sequence (Q07954 20-4544): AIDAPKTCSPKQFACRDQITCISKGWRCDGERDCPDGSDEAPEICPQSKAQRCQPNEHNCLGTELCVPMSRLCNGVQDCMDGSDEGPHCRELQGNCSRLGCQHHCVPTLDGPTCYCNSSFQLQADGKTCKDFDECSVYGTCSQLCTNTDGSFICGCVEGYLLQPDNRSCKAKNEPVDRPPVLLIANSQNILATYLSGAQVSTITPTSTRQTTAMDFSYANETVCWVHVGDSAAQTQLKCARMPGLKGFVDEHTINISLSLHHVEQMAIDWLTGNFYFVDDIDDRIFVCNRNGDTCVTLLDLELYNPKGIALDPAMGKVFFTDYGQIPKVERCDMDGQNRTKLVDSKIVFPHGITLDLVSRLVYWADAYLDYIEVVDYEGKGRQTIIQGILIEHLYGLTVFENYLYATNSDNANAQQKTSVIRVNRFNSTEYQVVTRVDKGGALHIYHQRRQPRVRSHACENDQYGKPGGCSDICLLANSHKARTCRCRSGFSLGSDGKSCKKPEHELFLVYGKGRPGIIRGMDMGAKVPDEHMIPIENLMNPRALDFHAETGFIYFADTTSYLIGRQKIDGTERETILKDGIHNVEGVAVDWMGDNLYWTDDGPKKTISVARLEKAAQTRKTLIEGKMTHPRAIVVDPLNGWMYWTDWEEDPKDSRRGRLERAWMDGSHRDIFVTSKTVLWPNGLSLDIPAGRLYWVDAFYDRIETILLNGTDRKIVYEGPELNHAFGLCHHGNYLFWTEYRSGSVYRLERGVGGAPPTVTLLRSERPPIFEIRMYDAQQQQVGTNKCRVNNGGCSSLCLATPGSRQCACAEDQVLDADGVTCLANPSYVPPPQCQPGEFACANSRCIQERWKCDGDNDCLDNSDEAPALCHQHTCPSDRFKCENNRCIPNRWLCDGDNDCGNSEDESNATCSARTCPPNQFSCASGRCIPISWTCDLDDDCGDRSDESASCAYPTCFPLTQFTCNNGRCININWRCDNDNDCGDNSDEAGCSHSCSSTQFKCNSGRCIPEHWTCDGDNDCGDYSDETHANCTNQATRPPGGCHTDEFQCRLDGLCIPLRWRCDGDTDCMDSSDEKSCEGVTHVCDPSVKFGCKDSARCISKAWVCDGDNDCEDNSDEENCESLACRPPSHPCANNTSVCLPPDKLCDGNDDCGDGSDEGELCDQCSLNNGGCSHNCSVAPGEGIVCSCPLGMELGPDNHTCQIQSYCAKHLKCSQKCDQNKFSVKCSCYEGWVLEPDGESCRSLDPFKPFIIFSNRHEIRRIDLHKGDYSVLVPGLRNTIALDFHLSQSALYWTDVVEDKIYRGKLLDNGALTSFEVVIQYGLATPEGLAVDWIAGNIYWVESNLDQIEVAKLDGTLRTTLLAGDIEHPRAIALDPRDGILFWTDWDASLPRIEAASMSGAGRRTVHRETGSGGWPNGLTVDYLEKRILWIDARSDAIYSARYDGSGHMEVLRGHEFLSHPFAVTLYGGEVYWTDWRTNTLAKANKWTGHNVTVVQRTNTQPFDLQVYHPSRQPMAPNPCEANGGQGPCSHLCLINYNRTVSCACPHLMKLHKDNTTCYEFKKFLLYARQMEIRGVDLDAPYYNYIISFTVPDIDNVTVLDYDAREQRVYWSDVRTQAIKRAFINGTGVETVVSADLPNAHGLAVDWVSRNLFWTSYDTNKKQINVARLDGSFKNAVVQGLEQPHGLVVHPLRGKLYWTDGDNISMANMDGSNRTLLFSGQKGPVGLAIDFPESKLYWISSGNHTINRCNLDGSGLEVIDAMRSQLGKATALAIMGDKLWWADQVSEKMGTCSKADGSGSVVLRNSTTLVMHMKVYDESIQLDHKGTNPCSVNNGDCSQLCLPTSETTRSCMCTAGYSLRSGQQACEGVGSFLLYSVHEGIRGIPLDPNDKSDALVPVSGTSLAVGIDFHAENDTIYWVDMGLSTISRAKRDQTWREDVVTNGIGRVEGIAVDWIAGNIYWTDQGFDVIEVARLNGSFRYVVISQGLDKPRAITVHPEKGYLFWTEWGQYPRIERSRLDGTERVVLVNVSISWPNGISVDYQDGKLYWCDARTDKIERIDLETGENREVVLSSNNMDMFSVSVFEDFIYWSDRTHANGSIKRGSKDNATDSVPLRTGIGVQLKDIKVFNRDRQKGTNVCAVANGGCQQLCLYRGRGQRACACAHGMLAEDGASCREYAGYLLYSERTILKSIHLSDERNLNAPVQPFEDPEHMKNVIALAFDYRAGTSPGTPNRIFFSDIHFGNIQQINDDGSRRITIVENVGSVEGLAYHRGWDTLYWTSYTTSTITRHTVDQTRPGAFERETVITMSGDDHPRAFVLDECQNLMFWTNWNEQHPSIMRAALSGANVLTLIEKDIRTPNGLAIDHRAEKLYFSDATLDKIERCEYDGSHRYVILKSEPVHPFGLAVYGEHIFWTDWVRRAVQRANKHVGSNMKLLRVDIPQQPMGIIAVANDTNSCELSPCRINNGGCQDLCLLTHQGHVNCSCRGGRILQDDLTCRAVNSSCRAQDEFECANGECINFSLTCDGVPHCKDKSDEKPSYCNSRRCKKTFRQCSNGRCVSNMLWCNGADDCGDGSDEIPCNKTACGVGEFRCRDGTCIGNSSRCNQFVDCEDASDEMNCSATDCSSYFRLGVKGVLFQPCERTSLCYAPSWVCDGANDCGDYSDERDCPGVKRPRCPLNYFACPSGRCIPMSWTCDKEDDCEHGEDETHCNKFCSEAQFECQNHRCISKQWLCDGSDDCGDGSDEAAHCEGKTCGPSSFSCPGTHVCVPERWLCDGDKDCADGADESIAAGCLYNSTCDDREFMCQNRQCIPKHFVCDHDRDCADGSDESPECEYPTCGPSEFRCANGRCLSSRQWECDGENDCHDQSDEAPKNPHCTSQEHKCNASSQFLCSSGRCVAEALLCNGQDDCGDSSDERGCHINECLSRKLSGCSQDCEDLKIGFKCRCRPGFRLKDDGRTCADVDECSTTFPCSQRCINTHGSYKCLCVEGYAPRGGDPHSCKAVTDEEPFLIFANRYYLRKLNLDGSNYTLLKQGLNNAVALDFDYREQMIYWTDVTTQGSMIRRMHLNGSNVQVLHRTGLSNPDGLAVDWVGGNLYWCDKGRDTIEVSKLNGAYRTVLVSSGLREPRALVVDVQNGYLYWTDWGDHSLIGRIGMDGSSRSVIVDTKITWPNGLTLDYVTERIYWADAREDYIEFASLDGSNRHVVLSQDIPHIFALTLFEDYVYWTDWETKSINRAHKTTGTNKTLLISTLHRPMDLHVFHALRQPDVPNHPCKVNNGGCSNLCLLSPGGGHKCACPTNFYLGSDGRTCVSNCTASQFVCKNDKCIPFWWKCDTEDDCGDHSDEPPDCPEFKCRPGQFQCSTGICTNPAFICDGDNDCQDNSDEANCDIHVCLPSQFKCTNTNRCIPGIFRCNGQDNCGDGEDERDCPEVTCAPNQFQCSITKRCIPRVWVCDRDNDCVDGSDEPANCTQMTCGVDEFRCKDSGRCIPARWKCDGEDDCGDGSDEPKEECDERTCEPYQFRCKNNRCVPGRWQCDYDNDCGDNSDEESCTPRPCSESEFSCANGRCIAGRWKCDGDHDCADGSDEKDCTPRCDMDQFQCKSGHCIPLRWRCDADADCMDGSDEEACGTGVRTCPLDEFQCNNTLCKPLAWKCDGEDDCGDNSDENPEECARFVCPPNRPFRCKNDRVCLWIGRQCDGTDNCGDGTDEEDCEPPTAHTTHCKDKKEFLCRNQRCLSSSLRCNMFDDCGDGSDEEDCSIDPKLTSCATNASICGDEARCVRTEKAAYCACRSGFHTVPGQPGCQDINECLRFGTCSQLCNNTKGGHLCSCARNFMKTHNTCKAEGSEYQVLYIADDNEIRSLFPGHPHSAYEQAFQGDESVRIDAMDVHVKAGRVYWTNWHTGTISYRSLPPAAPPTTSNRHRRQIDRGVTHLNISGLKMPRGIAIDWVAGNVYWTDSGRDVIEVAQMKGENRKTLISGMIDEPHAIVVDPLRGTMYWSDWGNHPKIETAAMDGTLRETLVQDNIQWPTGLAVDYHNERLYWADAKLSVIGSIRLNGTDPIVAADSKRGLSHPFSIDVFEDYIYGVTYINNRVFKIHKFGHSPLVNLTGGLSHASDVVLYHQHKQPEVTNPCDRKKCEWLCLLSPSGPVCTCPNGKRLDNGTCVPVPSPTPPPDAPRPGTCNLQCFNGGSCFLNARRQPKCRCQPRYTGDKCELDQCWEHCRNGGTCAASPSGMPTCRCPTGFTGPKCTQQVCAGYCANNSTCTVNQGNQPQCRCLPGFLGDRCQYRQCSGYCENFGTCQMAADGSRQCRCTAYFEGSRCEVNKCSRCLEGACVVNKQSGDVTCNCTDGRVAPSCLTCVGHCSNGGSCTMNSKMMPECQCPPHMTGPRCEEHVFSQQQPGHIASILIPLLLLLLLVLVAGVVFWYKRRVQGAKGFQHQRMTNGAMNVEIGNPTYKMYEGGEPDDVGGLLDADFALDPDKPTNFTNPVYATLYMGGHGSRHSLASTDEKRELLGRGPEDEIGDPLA
Assay: SPR; BIAcore T200; LRP-1 immobilised on a CM5 chip by amine coupling (3000 RU); 25 °C; 150 mM NaCl, 10 mM CaCl2, 50 mM Tris-HCl, 0.01% Tween-20, pH 7.5; 30 μl/min; ligands or pre-formed complexes injected; one-site binding model; triplicate
Conditions: both partners purified

Binder	Kd	koff	kon
B1	0.6 nM	0.00419 s⁻¹	6.88e+06 M⁻¹ s⁻¹
B2	2.27 nM	0.00678 s⁻¹	2.99e+06 M⁻¹ s⁻¹
B3	6.42 nM	0.00254 s⁻¹	396000 M⁻¹ s⁻¹
B4	8.67 nM	0.00386 s⁻¹	446000 M⁻¹ s⁻¹
B5	4.5 nM	0.00206 s⁻¹	457000 M⁻¹ s⁻¹
B6	3.3 nM	0.00217 s⁻¹	659000 M⁻¹ s⁻¹
B7	77.6 nM	0.00381 s⁻¹	49000 M⁻¹ s⁻¹
B8	5.65 nM	0.00321 s⁻¹	567000 M⁻¹ s⁻¹
B9	30.9 nM	0.0109 s⁻¹	353000 M⁻¹ s⁻¹
